Measured values from patent publication US20240241124.

Experiments:
[1] = biological target: SecV sensor (version not stated)
[2] = biological target: T1, SecV sensor, HiLyte-Fluor 488/QXL520 version (β-sec^V2 strand annealed to ES3) (not fully specified)
T1 chain: KFEADLNVEKC

[3] = biological target: T2, SecV sensor, EDANS/DABCYL version (β-sec^V1 strand annealed to ES3) (not fully specified)
T2 chain: RKFEADLNVEERC

B1: recombinant human BACE1 (beta-site APP cleaving enzyme 1), purified enzyme (ab271386, Abcam) (protein)
chain: TQHGIRLPLRSGLGGAPLGLRLPRETDEEPEEPGRRGSFVEMVDNLRGKSGQGYYVEMTVGSPPQTLNILVDTGSSNFAVGAAPHPFLHRYYQRQLSSTYRDLRKGVYVPYTQGKWEGELGTDLVSIPHGPNVTVRANIAAITESDKFFINGSNWEGILGLAYAEIARPDDSLEPFFDSLVKQTHVPNLFSLQLCGAGFPLNQSEVLASVGGSMIIGGIDHSLYTGSLWYTPIRREWYYEVIIVRVEINGQDLKMDCKEYNYDKSIVDSGTTNLRLPKKVFEAAVKSIKAASSTEKFPDGFWLGEQLVCWQAGTTPWNIFPVISLYLMGEVTNQSFRITILPQQYLRPVEDVATSQDDCYKFAISQSSTGTVMGAVIMEGFYVVFDRARKRIGFAVSACHVHDEFRTAAVEGPFVTLDMEDCGYNIPQTDESTLMT
[1]
  lowest amount of BACE1 giving detectable change in sensor signal: The SecV sensor showed detectable changes in signal from 8 ng and remains linear until 80 ng
  upper end of linear range of sensor signal against amount of BACE1: The SecV sensor showed detectable changes in signal from 8 ng and remains linear until 80 ng
[2]
  fold change in sensor response (G/R ratio), in vitro BACE1 activity assay: a >1.8-fold response when HyLite-488 and QXL520 were used as a FRET pair
  fold change in the signal (G/R ratio), in vitro specificity assay: upon addition of BACE1 the sensor showed a 1.8-fold change in the signal
[3]
  fold change in sensor response (G/R ratio), in vitro BACE1 activity assay: A >3.0-fold change in sensor response was observed when EDANS and DABCYL were used as a FRET pair
